Experimental data taken from the Human Domainome abundance scans (Beltran et al. 2025).
± gives the uncertainty stated by the source.

B1: SWI/SNF-related matrix-associated actin-dependent regulator of chromatin subfamily B member 1, residues 181 to 248; numbered along this chain, Q12824 (parent)
chain: SQPEVLVPIRLDMEIDGQKLRDAFTWNMNEKLMTPEMFSEILCDDLDLNPLTFVPAIASAIRQQIESY

Variants of: B1
Experiment: abundance fitness (aPCA) (normalised: wild type 0, dead -1); higher = more abundant; growth selection in yeast, the domain comes from the species named
Conditions: Homo sapiens
Work on SQPEVLVPIRLDMEIDGQKLRDAFTWNMNEKLMTPEMFSEILCDDLDLNPLTFVPAIASAIRQSIESY [Q64S] yielded an abundance fitness of -0.563 ± 0.052.
SQPEVLVPIRLDMEIDGQKLRDAFTWNMNEKLMTPEMFSEILCDDLDLKPLTFVPAIASAIRQQIESY [N49K] showed an abundance fitness of -0.824 ± 0.13.
Variant SQPEVLVPRRLDMEIDGQKLRDAFTWNMNEKLMTPEMFSEILCDDLDLNPLTFVPAIASAIRQQIESY [I9R] has an abundance fitness of -1.03 ± 0.23.
In the case of SQPRVLVPIRLDMEIDGQKLRDAFTWNMNEKLMTPEMFSEILCDDLDLNPLTFVPAIASAIRQQIESY [E4R], the abundance fitness is reported as -0.234 ± 0.041.
Work on SQPEVLVPIRLDMEIDGQKLRDAFTWNMNEKLMTPEMFSEILCDDLDANPLTFVPAIASAIRQQIESY [L48A] yielded an abundance fitness of -0.857 ± 0.1.
In the case of SQPEVLVPIRLDMEIDGQKLRDATTWNMNEKLMTPEMFSEILCDDLDLNPLTFVPAIASAIRQQIESY [F24T], the abundance fitness is reported as -0.746 ± 0.15.
SQPEVLVPIRLDMEIDGQKLRDAFTWNMNEKLMTPEMFSAILCDDLDLNPLTFVPAIASAIRQQIESY [E40A] gave an abundance fitness of 0.038 ± 0.033.
With SQPEVLVPIRLDMEIDGQKLRDAFTWNMNEKLMTPEMFSEILCDDLHLNPLTFVPAIASAIRQQIESY [D47H] the abundance fitness was -0.018 ± 0.053.
SQPEVLVPIRLDMEIDGQKLRDAFTWNMNEKLMTPEMFSEILCDDLDLNPLTFVPAIASPIRQQIESY [A60P] showed an abundance fitness of -0.974 ± 0.17.
With SQPEVLVPIRLDMEIDGQKLRDAFTWNMNEKLMTPEMFSEILCDDLDLNPLTFVPAIASAIRQQIEEY [S67E] the abundance fitness was -0.011 ± 0.074.
SQPEVLVPIRLDMEIDGQKLRDAFTWNMNEKLMTPEMFSEILCDDLDLQPLTFVPAIASAIRQQIESY [N49Q] showed an abundance fitness of -0.458 ± 0.055.
SQPEVLVPFRLDMEIDGQKLRDAFTWNMNEKLMTPEMFSEILCDDLDLNPLTFVPAIASAIRQQIESY [I9F] showed an abundance fitness of -0.791 ± 0.23.
In the case of SQPEVLVPIRLDMEIDGQKLRDAFTWNMNEKLMTPEMFSEKLCDDLDLNPLTFVPAIASAIRQQIESY [I41K], the abundance fitness is reported as 0.314 ± 0.05.
SQPEVLVPIRLDMEIDGQKCRDAFTWNMNEKLMTPEMFSEILCDDLDLNPLTFVPAIASAIRQQIESY [L20C] showed an abundance fitness of -0.319 ± 0.067.
Work on SQPEVLVPIRLDMEIDGQKLRDAFTWNMNEKLMTPEMFSEILCDDLDLNPLTFVPAIASAIAQQIESY [R62A] yielded an abundance fitness of -0.66 ± 0.4.
For SQPEVLVPIRLDMEIDGQKLRDAFTWNMNEKLMTPEMFSEILCDDLDLNPLTFVPAIASALRQQIESY [I61L], the abundance fitness was -0.725 ± 0.26.
Work on SQPEVLVPIRLDMEIDGQKLRDAFTWNMNEKLMTPEMFSEILCDDLDLNPLTFVPAIASAVRQQIESY [I61V] yielded an abundance fitness of -0.536 ± 0.1.
With SQPEVLVTIRLDMEIDGQKLRDAFTWNMNEKLMTPEMFSEILCDDLDLNPLTFVPAIASAIRQQIESY [P8T] the abundance fitness was -0.177 ± 0.048.
With SQPEVLVPGRLDMEIDGQKLRDAFTWNMNEKLMTPEMFSEILCDDLDLNPLTFVPAIASAIRQQIESY [I9G] the abundance fitness was -0.762 ± 0.18.
Variant SQPEVLVPIRLDMEIDGQKLRDAFTWNMNEKLMTPEMFSEILCDDLDLNPLTFVPAIASATRQQIESY [I61T] has an abundance fitness of -0.594 ± 0.16.
With SQPEVLVPIRLDMEIDGQKLRDAFTWNMNEKLMTPEMFSEDLCDDLDLNPLTFVPAIASAIRQQIESY [I41D] the abundance fitness was -0.04 ± 0.12.
SQPEVLVPIRLDMEIDGQKLRDAFTTNMNEKLMTPEMFSEILCDDLDLNPLTFVPAIASAIRQQIESY [W26T] showed an abundance fitness of -0.854 ± 0.26.
In the case of SQPEVLVPIRLDMEIDGQKLRDAFTWNMNEKSMTPEMFSEILCDDLDLNPLTFVPAIASAIRQQIESY [L32S], the abundance fitness is reported as 0.059 ± 0.036.
Work on SQPEVLVPIRLDMEIDGQKLRDAFTWNMNEKLMTPEMFSEILCDDLDKNPLTFVPAIASAIRQQIESY [L48K] yielded an abundance fitness of -0.651 ± 0.12.
SQPEVLVPIRLDMEIDGQKLRDAFTWNMNEKLMTPEMFSEILCDDLDLNPLVFVPAIASAIRQQIESY [T52V] gave an abundance fitness of -0.005 ± 0.095.
In the case of SQPEVLVPIRLDMEIDRQKLRDAFTWNMNEKLMTPEMFSEILCDDLDLNPLTFVPAIASAIRQQIESY [G17R], the abundance fitness is reported as -0.713 ± 0.071.
SQPEVLVPIRLDMEIDGQKLRSAFTWNMNEKLMTPEMFSEILCDDLDLNPLTFVPAIASAIRQQIESY [D22S] gave an abundance fitness of -0.21 ± 0.25.
SQPEVLVPIRLDMEIDGQKLRDAFTWNMNEKLMTPEMFSEILCDDLDLNPLTFVPAIASAIRQQIESK [Y68K] gave an abundance fitness of -0.47 ± 0.17.
Variant SQPEVTVPIRLDMEIDGQKLRDAFTWNMNEKLMTPEMFSEILCDDLDLNPLTFVPAIASAIRQQIESY [L6T] has an abundance fitness of -0.126 ± 0.082.
Variant SQPEVLVPIRLDMEIDGQKLRDAFTWNMNEKLMTPEMFSEIHCDDLDLNPLTFVPAIASAIRQQIESY [L42H] has an abundance fitness of -0.636 ± 0.12.
With SQPEVLVPIRLDMEIDGQKLRDAFQWNMNEKLMTPEMFSEILCDDLDLNPLTFVPAIASAIRQQIESY [T25Q] the abundance fitness was -0.121 ± 0.046.
SQPEVLVPIRLDMEIDGQKLRDAFTWNMNEKLMTPEMFSEILCDDLDLNPLTFVPATASAIRQQIESY [I57T] showed an abundance fitness of -0.855 ± 0.14.
For SQPEVLVPIRLDMEIDGQKLRDAFTWNMNEKLMTPEMFSEILCDDLDLNPLTFVPAIASAIRPQIESY [Q63P], the abundance fitness was -0.758 ± 0.2.
Variant SQPEVLVPIPLDMEIDGQKLRDAFTWNMNEKLMTPEMFSEILCDDLDLNPLTFVPAIASAIRQQIESY [R10P] has an abundance fitness of -0.386 ± 0.27.
Work on SQPEVLVPIRLDMEGDGQKLRDAFTWNMNEKLMTPEMFSEILCDDLDLNPLTFVPAIASAIRQQIESY [I15G] yielded an abundance fitness of -0.97 ± 0.25.
With SQPEVLVPIRLDMEIDGTKLRDAFTWNMNEKLMTPEMFSEILCDDLDLNPLTFVPAIASAIRQQIESY [Q18T] the abundance fitness was -0.347 ± 0.11.
SQPEVLVPIRLDMEIDGQKLRDAFTWNMNEKLMTPEMFSIILCDDLDLNPLTFVPAIASAIRQQIESY [E40I] gave an abundance fitness of -0.419 ± 0.099.
In the case of SQPEVLVPIRLDMEIDPQKLRDAFTWNMNEKLMTPEMFSEILCDDLDLNPLTFVPAIASAIRQQIESY [G17P], the abundance fitness is reported as -0.927 ± 0.29.
Variant SQPEVLVPIRLDMEIDGQKLRDAFTWNMNEKLMTPEMFSEILCDDLDLNPLTFVPAIASEIRQQIESY [A60E] has an abundance fitness of 0.085 ± 0.089.
For SQPEVLVPIRLDMEIDGQKLRDAFTWNMNEKLMTPEMFSEILCDDLDLNPLTFVPAIASAIRQQIEDY [S67D], the abundance fitness was -0.055 ± 0.12.
